# From PMC1931592 (BMC Pharmacology, 2007)
# B1: Ac-DMQD-CHO (peptide)
# peptide: Ac-DMQD-aldehyde
# SMILES: CSCC[C@H](NC(=O)[C@H](CC(=O)O)NC(C)=O)C(=O)N[C@@H](CCC(N)=O)C(=O)N[C@H](C=O)CC(=O)O
# notes: source: bought: Peptide Institute, Inc (synthetic peptide)
# B2: Ac-DEVD-CHO (peptide)
# peptide: Ac-DEVD-aldehyde
# notes: as for B1
# B3: Ac-DNLD-CHO (peptide)
# peptide: Ac-DNLD-aldehyde
# notes: tetrapeptide designed by the computational APF method; so far not known in any natural caspase substrate; source: synthetic peptide (synthesized by Peptide Institute, Inc)
# B4: Ac-DQTD-CHO (peptide)
# peptide: Ac-DQTD-aldehyde
# SMILES: CC(=O)N[C@@H](CC(=O)O)C(=O)N[C@@H](CCC(N)=O)C(=O)N[C@H](C(=O)N[C@H](C=O)CC(=O)O)[C@@H](C)O
# notes: as for B1
# Columns and labels:
# Test in all cases: enzyme inhibition assay (fluorogenic substrate cleavage); one unit of active recombinant human caspase incubated with various concentrations of peptide inhibitor in 100 mM NaCl, 50 mM HEPES, 10 mM DTT, 1 mM EDTA, 10% glycerol, 0.1% CHAPS, pH 7.4, 37°C, 30 min; then 200 μM substrate (Ac-DEVD-MCA for caspases-3 and -7, Ac-IETD-MCA for caspase-8, Ac-LEHD-MCA for caspase-9); apparent Ki = IC50/(1+[S]/Km)
# Details in all cases: both partners purified
# [1] = target: T1, Recombinant human caspase-3 (active) (human, UniProt P42574 1-277)
# [2] = target: Recombinant human caspase-8 (active) (human, UniProt Q14790 1-479)
# [3] = target: T2, Recombinant human caspase-7 (active) (human, UniProt P55210 1-303)
# [4] = target: T1, Recombinant human caspase-3 (active); remark: listed apart in the source
# [5] = target: T2, Recombinant human caspase-7 (active); remark: listed apart in the source
# T2 sequence (P55210 whole entry): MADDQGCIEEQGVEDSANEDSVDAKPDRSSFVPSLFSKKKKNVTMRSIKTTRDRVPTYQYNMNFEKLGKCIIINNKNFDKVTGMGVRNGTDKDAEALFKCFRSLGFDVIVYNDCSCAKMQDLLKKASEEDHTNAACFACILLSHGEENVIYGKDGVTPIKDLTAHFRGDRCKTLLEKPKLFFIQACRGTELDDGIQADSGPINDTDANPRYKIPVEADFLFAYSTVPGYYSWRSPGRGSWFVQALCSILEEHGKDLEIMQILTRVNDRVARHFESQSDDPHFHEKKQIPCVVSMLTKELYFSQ
# Chain of Recombinant human caspase-8 (active) (Q14790 whole entry): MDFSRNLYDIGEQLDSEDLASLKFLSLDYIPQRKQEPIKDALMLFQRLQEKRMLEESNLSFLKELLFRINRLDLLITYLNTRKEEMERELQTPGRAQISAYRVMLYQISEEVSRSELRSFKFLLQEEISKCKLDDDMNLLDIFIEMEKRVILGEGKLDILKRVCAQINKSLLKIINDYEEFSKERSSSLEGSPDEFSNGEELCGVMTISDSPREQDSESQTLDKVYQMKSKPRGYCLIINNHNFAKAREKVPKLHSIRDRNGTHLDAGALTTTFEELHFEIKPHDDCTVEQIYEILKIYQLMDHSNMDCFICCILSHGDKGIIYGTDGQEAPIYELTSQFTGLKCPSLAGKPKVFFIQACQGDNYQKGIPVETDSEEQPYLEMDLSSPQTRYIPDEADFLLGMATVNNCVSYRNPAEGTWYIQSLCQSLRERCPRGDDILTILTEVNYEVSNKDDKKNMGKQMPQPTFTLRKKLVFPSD
# T1 sequence (P42574 whole entry): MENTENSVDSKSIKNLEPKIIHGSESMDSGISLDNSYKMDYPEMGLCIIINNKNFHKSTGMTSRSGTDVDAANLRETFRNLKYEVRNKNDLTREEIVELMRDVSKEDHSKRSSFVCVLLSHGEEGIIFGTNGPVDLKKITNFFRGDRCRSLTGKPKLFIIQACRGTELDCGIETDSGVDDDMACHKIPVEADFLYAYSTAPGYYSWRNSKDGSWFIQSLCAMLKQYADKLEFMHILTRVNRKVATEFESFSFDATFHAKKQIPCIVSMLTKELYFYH
Binder,Ki [1] [nM],Ki [2] [nM],Ki [3] [nM],IC50 [4] [nM],IC50 [5] [nM]
B1,13.3 ± 0.3,> 200,> 200,193,–
B2,–,0.597 ± 0.095,4.48 ± 0.21,–,19.7
B3,–,> 200,–,–,–
B4,1.27 ± 0.11,9.75 ± 1.09,21.8 ± 1.1,–,–
